Numbered stars: 1 amine (or outer) side, 2 acyl side, 3 side chain; on linkers, the order of the positions; unused ones are H or OH. Bridge positions count the residues as written; N and C are the ends. Square brackets hold non-standard residues; d marks the D form. Ends that are not written are not given here. Peptide text beside a SMILES is read from it. ξ: configuration not given here. ξαMeNle(6-ylidene) = CC(CCCC=[*:3])(N[*:1])C(=O)[*:2]
What was measured:
MDCK and HEK293 cells [1] = experiment: Cell toxicity: caspase 3/7 activity in cell extracts (apoptosis); format: cell-based
Protocol: (§1) (A and B) MDCK and HEK293 cells were incubated as described in previous figures with TAT-F1 or TAT-P5. Cell toxicity was then assessed by measuring release of LDH in the medium and caspase 3/7 activity in cell extracts. […] Direct lysis of cells served as a positive control in (A) whereas active caspases were used as controls in (B).
(§2) (A and B) MDCK and HEK293 cells were incubated as described in previous figures with stapled-P5. Cell toxicity was then assessed by measuring release of LDH in the medium and caspase 3/7 activity in cell extracts. […] Direct lysis of cells served as a positive control for LDH release whereas active caspases were used in caspase assays.
(§3) The potency of GEF-H1 inhibitors was analysed in cell-based assays to determine effectiveness of inhibition of GEF-H1 signalling and specificity for GEF-H1, and in cell-based assays modelling epithelial degeneration or inflammatory disease. Potential toxicity of the inhibitors was determined by measuring apoptosis (Caspase3/7 activation) and necrosis (release of […]).

MDCK and HEK293 cells [2] = experiment: Cell toxicity: release of LDH in the medium (necrosis); format: cell-based
Protocol: as §1, §2, §3

GEF-H1 [3] = biological target: T1, GEF-H1 (Canis lupus familiaris, UniProt Q865S3); experiment: GEF-H1 overexpression-induced cell spreading / cell shape morphological assay; format: cell-based
T1 sequence (Q865S3 1-986): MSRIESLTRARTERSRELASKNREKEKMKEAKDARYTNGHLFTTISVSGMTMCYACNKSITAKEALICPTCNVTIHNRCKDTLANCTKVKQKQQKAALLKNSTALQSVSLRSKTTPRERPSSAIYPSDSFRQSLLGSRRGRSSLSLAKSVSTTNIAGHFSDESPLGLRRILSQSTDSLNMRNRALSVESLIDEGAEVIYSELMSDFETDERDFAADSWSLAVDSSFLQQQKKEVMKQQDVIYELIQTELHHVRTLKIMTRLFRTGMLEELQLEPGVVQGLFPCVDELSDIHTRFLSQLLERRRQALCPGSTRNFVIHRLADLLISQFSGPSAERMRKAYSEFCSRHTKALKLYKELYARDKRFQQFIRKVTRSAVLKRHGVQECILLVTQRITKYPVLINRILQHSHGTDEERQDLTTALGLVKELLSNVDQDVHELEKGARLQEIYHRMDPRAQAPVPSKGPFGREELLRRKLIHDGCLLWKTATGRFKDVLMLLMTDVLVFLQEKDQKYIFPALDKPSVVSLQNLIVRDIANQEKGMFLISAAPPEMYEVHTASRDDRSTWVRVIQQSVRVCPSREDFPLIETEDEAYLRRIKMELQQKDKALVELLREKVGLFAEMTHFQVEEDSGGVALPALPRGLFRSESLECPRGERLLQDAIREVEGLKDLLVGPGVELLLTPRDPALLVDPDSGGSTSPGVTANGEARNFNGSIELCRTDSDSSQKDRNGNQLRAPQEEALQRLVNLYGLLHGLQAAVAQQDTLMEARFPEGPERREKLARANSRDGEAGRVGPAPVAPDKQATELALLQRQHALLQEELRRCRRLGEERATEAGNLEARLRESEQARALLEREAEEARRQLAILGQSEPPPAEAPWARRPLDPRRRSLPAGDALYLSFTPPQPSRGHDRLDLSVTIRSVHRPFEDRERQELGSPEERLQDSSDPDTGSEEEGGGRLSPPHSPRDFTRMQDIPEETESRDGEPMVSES

[4] = test system: interaction between RhoA and constitutively active GEF-H1 (DH/PH module); experiment: GST-RhoA pulldown of constitutively active GEF-H1 from cell extracts; format: binding; conditions: GST-RhoA pull down, FIG. 5
Protocol: Recombinant fusion proteins of GST and RhoA were used for pulldown of constitutively active GEF-H1 from cell extracts. (A) Candidate peptide inhibitors were added to the pulldown. (B, C) Recombinant fragments from the CTD of GEF-H1 were added. Note, the further analysed P5 and F1 peptide inhibitors both block the interaction between RhoA and active GEF-H1.
2) Active GEF-H1 binds with high affinity to nucleotide-free and GDP-bound RhoA, its physiological substrate. […] Thus, both F1 and P5 block GEF-H1 function by the same mechanism. Based on these functional and biochemical assays (FIGS. 4 and 5), F1 and P5 were selected for further analysis and refinement. Membrane permeable derivatives were synthesized for both inhibitors: TAT-F1 and TAT-P5.
The P5 sequence and modified versions thereof, are derived from the interaction surface of RhoA with the active site of GEF-H1 (i.e., the DH domain). […] The same is true for the F1 sequence, as it blocks binding of RhoA to a DH/PH domain construct (FIG. 5).

p114RhoGEF = biological target: T2, p114RhoGEF (Homo sapiens, UniProt Q6ZSZ5); experiment: p114RhoGEF-induced cell rounding in MDCK cells (specificity); format: cell-based
T2 sequence (Q6ZSZ5 1-1015 isoform Q6ZSZ5-2): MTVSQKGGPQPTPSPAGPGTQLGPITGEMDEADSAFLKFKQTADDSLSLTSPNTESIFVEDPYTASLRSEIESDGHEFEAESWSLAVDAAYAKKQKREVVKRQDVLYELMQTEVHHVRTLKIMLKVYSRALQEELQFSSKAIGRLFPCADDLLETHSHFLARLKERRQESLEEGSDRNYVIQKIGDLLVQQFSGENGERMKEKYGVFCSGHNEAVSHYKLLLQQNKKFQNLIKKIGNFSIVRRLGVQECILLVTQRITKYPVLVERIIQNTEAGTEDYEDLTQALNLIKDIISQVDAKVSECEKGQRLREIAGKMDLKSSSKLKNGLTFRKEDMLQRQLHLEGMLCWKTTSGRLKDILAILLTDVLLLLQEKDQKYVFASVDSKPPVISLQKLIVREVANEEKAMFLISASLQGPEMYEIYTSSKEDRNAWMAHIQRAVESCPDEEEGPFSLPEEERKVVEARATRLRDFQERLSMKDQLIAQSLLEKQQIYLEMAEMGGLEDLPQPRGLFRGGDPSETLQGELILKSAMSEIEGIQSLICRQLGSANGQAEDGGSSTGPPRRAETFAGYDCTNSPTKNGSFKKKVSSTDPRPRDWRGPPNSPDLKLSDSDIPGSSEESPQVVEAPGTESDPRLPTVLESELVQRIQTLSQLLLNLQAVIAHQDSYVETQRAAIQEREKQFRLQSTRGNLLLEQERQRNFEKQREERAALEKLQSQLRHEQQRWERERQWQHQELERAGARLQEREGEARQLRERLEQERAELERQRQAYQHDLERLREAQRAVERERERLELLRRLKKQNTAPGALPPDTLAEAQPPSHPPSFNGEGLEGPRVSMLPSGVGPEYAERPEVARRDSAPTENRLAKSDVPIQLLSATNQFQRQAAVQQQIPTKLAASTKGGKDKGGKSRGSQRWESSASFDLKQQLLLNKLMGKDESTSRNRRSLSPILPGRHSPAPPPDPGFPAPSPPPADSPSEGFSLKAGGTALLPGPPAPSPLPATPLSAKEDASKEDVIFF

[5] = test system: Human primary endothelial cells; experiment: LPS-induced endothelial activation; format: cell-based
Source text: GEF-H1 inhibitors prevent endothelial inflammatory responses induced by LPS. Human primary endothelial cells were stimulated with LPS in the presence or absence of the indicated GEF-H1 inhibitors. […] TAT-P5 and TAT-F1 attenuate cytoskeletal remodelling, ICAM1 induction, and attenuate loss of barrier function.
8) GEF-H1 regulates inflammatory responses in various cell types. […] Similarly, cytoskeletal remodeling and cell junction disruption was also attenuated in TNFα and Thrombin-stimulated endothelial cells.

[6] = test system: primary retinal pigment epithelial (RPE) cells; experiment: TGF-β stimulation of primary RPE cells (αSMA induction, junctional markers); format: cell-based
Protocol: Inhibition of TGF-β signaling in primary retinal pigment epithelial (RPE) cells. (A, B) Primary RPE cells were incubated with TAT-P5 or TAT-F1 and stimulated with TGF-β for five days. (A) αSMA and, as a loading control, tubulin expression were analysed by immunoblotting. […] (B) Expression of the junctional marker ZO-1 and tubulin were determined. (C) Primary RPE cells were incubated with TGF-β as in (A) but with stapled-P5, and expression of αSMA positive cells was analysed by immunofluorescence.
7) The inventors next tested the inhibitors in cell-based disease models. GEF-H1 drives fibrotic and degenrative responses in the RPE, which can be modelled by treating primary RPE cells with TGF-β.

active Dbl = experiment: αSMA / SRE reporter assays in cells overexpressing active Dbl (specificity); format: cell-based; conditions: TAT-F1 4 μM
GEF-H1 [7] = experiment: SRE / αSMA promoter luciferase reporter gene assays of GEF-H1 signalling; format: cell-based; conditions: GEF-H1 overexpression
[8] = stapled-P5, different concentrations analysed

`CC(C)C[C@H](NC(=O)[C@@H](N)CCCNC(=N)N)C(=O)NC1(C)CCCC=CCCCC(C)(C(=O)N2CCC[C@H]2C(=O)N[C@@H](CC(=O)O)C(=O)N[C@H](C(=O)O)[C@@H](C)O)NC(=O)[C@H](CO)NC(=O)[C@H](C)NC(=O)[C@@H]2CCCN2C1=O` (stereo partly shown) [stapled-P5, RL(X)PAS(X)PDT; X = 2,(4, pentenyl)alanine] (H-RL[ξαMeNle(6-ylidene)]PAS[ξαMeNle(6-ylidene)]PDT-OH; staple 3-7) was tested, and the “cell toxicity by caspase 3/7 activity in cell extracts” value (“cell toxicity by caspase 3/7 activity” for short) (MDCK and HEK293 cells [1]; [8]) was “No significant cell toxicity” and the “cell toxicity by release of LDH in the medium” value (“cell toxicity by release of LDH” below) (MDCK and HEK293 cells [2]; [8]) was “No significant cell toxicity”.

In the case of “GQEDYDRLRPASYPDTDVI (P5 amino acid sequence) [Peptide P5]”, the “inhibition of overexpressed GEF-H1, comparison of P1 to P5” value (GEF-H1 [3]; morphological assay (cell spreading) and SRE-driven reporter assay, peptide transfection) is reported as “most effective inhibitor” and the “inhibition of the interaction between RhoA and constitutively active GEF-H1” value [4] is reported as “inhibited the interaction”.

“GRKKRRQRRRPWQGQEDYDRLRPASYPDTDVI [TAT-P5]” was tested, and the “cell toxicity by caspase 3/7 activity” value (MDCK and HEK293 cells [1]; TAT-P5 5-20 μM) was “No significant cell toxicity” and the “cell toxicity by release of LDH” value (MDCK and HEK293 cells [2]; TAT-P5 5-20 μM) was “No significant cell toxicity”.

B1: F1: Fragment 1 of the auto-inhibitory C-terminal domain (CTD) of GEF-H1, SEQ ID NO: 2 (protein)
chain: SREDFPLIETEDEAYLRRIKMELQQKDKALVELLREKVGLFAEMTHFQVEEDSGGVALPALPRGLFRSESLECPRGERLLQDAIREVEGLKDLLVGPGVELLLTPRDPALLVDPDSGGSTSPGVTANGEARN
modifications: F1 amino acid sequence
B1 was tested, and the “auto-inhibitory activity / block of GEF-H1 function by CTD fragments” value (GEF-H1 [3]; FIGS. 4 and 5 (cell spreading, SRE reporter, pulldown)) was “blocks GEF-H1 function” and the “inhibition of the interaction between RhoA and constitutively active GEF-H1” value [4] was “inhibited the interaction”.

B2: TAT-F1: F1 fused to a TAT sequence to render it membrane-permeable, SEQ ID NO: 7 (protein)
chain: MGGYGRKKRRQRRRGGGSGYPYDVPDYAGGSSSREDFPLIETEDEAYLRRIKMELQQKDKALVELLREKVGLFAEMTHFQVEEDSGGVALPALPRGLFRSESLECPRGERLLQDAIREVEGLKDLLVGPGVELLLTPRDPALLVDPDSGGSTSPGVTANGEARN
modifications: TAT-F1 amino acid sequence
With B2 the “inhibition of p114RhoGEF overexpression-induced cell rounding” value (p114RhoGEF) was “not inhibited”, the “cell toxicity by caspase 3/7 activity” value (MDCK and HEK293 cells [1]; TAT-F1 1-4 μM) was “No significant cell toxicity” and the “LPS-induced ICAM1 induction” value ([5]; immunoblotting) was “attenuate”. For the same molecule, the LPS-induced cytoskeletal remodelling ([5]; immunofluorescence) was “attenuate”, the “LPS-induced loss of barrier function” value ([5]; paracellular permeability) was “attenuate” and the “downregulation of junctional markers” value ([6]; primary RPE cells treated with TGF-β, FIG. 11) was “inhibit downregulation”. The “TGF-β-induced induction of αSMA, a marker of epithelial fibrosis” value ([6]; primary RPE cells, FIG. 11) was “effectively suppress”, the “TGF-β induced αSMA expression normalised by tubulin (immunoblot)” value ([6]; primary RPE cells, TGF-β for five days) was “concentration-dependent repression” and the “transcription from the αSMA promoter in cells overexpressing active Dbl” value (active Dbl) was “do not inhibit transcription”. The “transcription of the SRE-containing alpha-smooth muscle actin (αSMA) promoter” value (GEF-H1 [7]) was “inhibit transcription” and the “cell toxicity by release of LDH” value (MDCK and HEK293 cells [2]; TAT-F1 1-4 μM) was “No significant cell toxicity”.

From US20230190869A1, “PEPTIDE INHIBITORS OF GUANINE NUCLEOTIDE EXCHANGE FACTOR H-1” (UCL Business Ltd, priority 2020, published 2023)
